# In patent US20180009871A1 (INTARCIA THERAPEUTICS, published 2018):
# Where no end group is shown, it is not given here. [ ]: non-standard residue; d: D form. Formula III = not defined here; Formula II = not defined here; Aib = CC(C)(N)C(=O)O
# B1: Compound A27 (peptide)
# peptide: YSHGTFTSDYSKYLD[Aib]KRAQEFV[Aib]WLEDEGGPSSGAPPPS-OH
# modifications: N-terminus assumed
# SMILES: CC(C)C[C@H](NC(=O)[C@H](Cc1ccc(O)cc1)NC(=O)[C@H](CCCCN)NC(=O)[C@H](CO)NC(=O)[C@H](Cc1ccc(O)cc1)NC(=O)[C@H](CC(=O)O)NC(=O)[C@H](CO)NC(=O)[C@@H](NC(=O)[C@H](Cc1ccccc1)NC(=O)[C@@H](NC(=O)CNC(=O)[C@H](Cc1c[nH]cn1)NC(=O)[C@H](CO)NC(=O)[C@@H](N)Cc1ccc(O)cc1)[C@@H](C)O)[C@@H](C)O)C(=O)N[C@@H](CC(=O)O)C(=O)NC(C)(C)C(=O)N[C@@H](CCCCN)C(=O)N[C@@H](CCCNC(=N)N)C(=O)N[C@@H](C)C(=O)N[C@@H](CCC(N)=O)C(=O)N[C@@H](CCC(=O)O)C(=O)N[C@@H](Cc1ccccc1)C(=O)N[C@H](C(=O)NC(C)(C)C(=O)N[C@@H](Cc1c[nH]c2ccccc12)C(=O)N[C@@H](CC(C)C)C(=O)N[C@@H](CCC(=O)O)C(=O)N[C@@H](CC(=O)O)C(=O)N[C@@H](CCC(=O)O)C(=O)NCC(=O)NCC(=O)N1CCC[C@H]1C(=O)N[C@@H](CO)C(=O)N[C@@H](CO)C(=O)NCC(=O)N[C@@H](C)C(=O)N1CCC[C@H]1C(=O)N1CCC[C@H]1C(=O)N1CCC[C@H]1C(=O)N[C@@H](CO)C(=O)O)C(C)C
# B2: Compound B10 (peptide)
# peptide: YSHGTFTSDYSKYLD[Aib]KSAQEFVKWLEDEPSSGAPPPS-OH
# modifications: not fully specified (residue 24); printed as YSHGTFTSDYSKYLD(Aib)KSAQEFVK****WLEDEPSSGAPPPS-OH; also: structure of Formula II substituent not given here
# Molecular target: human glucagon receptor (GCGR) (human, UniProt P47871 26-477)
# Assay: cell-based or functional assay
row,Binder,hGCGR pEC50 (cAMP) [pEC50]
1,B1,12.1

# Molecular target: human GLP-1 receptor (GLP-1R) (human, UniProt P43220 24-463)
# Assay: cell-based or functional assay
# Target sequence in this assay (P43220 24-463): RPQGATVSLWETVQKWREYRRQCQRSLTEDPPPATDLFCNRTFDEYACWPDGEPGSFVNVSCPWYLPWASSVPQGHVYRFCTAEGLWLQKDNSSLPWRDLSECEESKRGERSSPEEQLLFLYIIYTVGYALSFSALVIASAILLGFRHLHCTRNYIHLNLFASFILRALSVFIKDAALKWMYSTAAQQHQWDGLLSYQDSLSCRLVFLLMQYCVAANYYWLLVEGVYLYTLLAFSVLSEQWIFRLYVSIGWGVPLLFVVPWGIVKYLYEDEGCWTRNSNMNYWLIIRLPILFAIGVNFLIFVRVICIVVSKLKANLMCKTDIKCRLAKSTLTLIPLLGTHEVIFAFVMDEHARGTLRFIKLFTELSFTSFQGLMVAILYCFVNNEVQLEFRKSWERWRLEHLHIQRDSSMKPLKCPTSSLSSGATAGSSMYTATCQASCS
row,Binder,hGLP1 pEC50 (cAMP) [pEC50]
1,B1,< 9

# Molecular target: human glucagon receptor (GCGR) (human, UniProt P47871 26-477)
# Assay: cell-based or functional assay
# Remark: another data set of the same source
row,Binder,GluR pEC 50 [pEC50]
1,YSQGTFTSDYSKYLDK(Formula II)ARAQEFVKWLEDEPKSKSPPPS-NH2 (reading uncertain) [Compound B35],11.1
2,YSHGTFTSDYSKYLD[Aib]KRAQEFVIWLEDEPSSK(Formula III)APPPS-OH (reading uncertain) [Compound B29],9.8
3,WSQGTFTSDYSKYLD[Aib]KRAQEFVK(Formula II)WLEDEPSSGAPPPS-OH (reading uncertain) [Compound B18],10.2
4,YSHGTFTSDK(Formula III)SKYLD[Aib]KYAQEFV[Aib]WLEDEPSSGAPPPS-OH (reading uncertain) [Compound B8],10.6
5,YSHGTFTSDYSKYLD[Aib]KYAQEFV[Aib]WLEDEPSSK(Formula III)APPPS-OH (reading uncertain) [Compound B5],9.6
6,YSHGTFTSDK(Formula II)SKYLD[Aib]KRAQEFVIWLEDEPSSGAPPPS-OH (reading uncertain) [Compound B27],11.5
7,YSHGTFTSDYSKYLD[Aib]KRAQK(Formula III)FVIWLEDEPSSGAPPPS-OH (reading uncertain) [Compound B30],9.7
8,WSQGTFTSDYSKYLDK(Formula III)KRAQEFV[Aib]WLEDEPSSGAPPPS-OH (reading uncertain) [Compound B23],9.5
9,YSHGTFTSDK(Formula III)SKYLD[Aib]KRAQEFVIWLEDEPSSGAPPPS-OH (reading uncertain) [Compound B32],9.4
10,YSHGTFTSDYSKYLD[Aib]KSAQEFV[Aib]WLEDEPSSK(Formula III)APPPS-OH (reading uncertain) [Compound B13],9.2
11,YSHGTFTSDYSKYLD[Aib]KRAQEFVIWLEDEPSSK(Formula II)APPPS-OH (reading uncertain) [Compound B25],10.5
12,YSHGTFTSDYSKYLD[Aib]KSAQEFVK(Formula III)WLEDEPSSGAPPPS-OH (reading uncertain) [Compound B14],9.3
13,YSHGTFTSDYSKYLD[Aib]KSAQEFV[Aib]WLEDEPSSK(Formula II)APPPS-OH (reading uncertain) [Compound B9],11.1
14,WSQGTFTSDK(Formula II)SKYLD[Aib]KRAQEFV[Aib]WLEDEPSSGAPPPS-OH (reading uncertain) [Compound B20],11.1
15,YSHGTFTSDYSKYLDK(Formula II)KSAQEFV[Aib]WLEDEPSSGAPPPS-OH (reading uncertain) [Compound B11],10.3
16,YSHGTFTSDK(Formula III)SKYLD[Aib]KSAQEFV[Aib]WLEDEPSSGAPPPS-OH (reading uncertain) [Compound B16],8.5

row,Binder,GluR pEC 50 [pEC50]
1,YSHGTFTSDYSKYLDK(Formula II)KYAQEFV[Aib]WLEDEPSSGAPPPS-OH (reading uncertain) [Compound B3],11.4
2,WSQGTFTSDK(Formula III)SKYLD[Aib]KRAQEFV[Aib]WLEDEPSSGAPPPS-OH (reading uncertain) [Compound B24],8.2
3,B2,9.9
4,YSHGTFTSDK(Formula II)SKYLD[Aib]KSAQEFV[Aib]WLEDEPSSGAPPPS-OH (reading uncertain) [Compound B12],11.5
5,YSHGTFTSDYSKYLDK(Formula III)KSAQEFV[Aib]WLEDEPSSGAPPPS-OH (reading uncertain) [Compound B15],9.9
6,YSHGTFTSDYSKYLDK(Formula III)KRAQEFVIWLEDEPSSGAPPPS (reading uncertain) [Compound B31],10.6
7,YSHGTFTSDYSKYLDK(Formula II)KRAQEFVIWLEDEPSSGAPPPS (reading uncertain) [Compound B26],11
8,YSQGTFTSDYSKYLDAARAQEFVKWLEDEPKSK(Formula II)SPPPS-NH2 (reading uncertain) [Compound B33],10.6
9,YSQGTFTSDYSKYLDAARAQEFVK(Formula II)WLEDEPKSKSPPPS-NH2 (reading uncertain) [Compound B34],9.8
10,YSHGTFTSDYSKYLD[Aib]KYAQEFVK(Formula II)WLEDEPSSGAPPPS-OH (reading uncertain) [Compound B2],11.1
11,WSQGTFTSDYSKYLD[Aib]KRAQEFV[Aib]WLEDEPSSK(Formula II)APPPS-OH (reading uncertain) [Compound B17],10.5
12,WSQGTFTSDYSKYLDK(Formula II)KRAQEFV[Aib]WLEDEPSSGAPPPS-OH (reading uncertain) [Compound B19],10.6
13,YSHGTFTSDK(Formula II)SKYLD[Aib]KYAQEFV[Aib]WLEDEPSSGAPPPS-OH (reading uncertain) [Compound B4],9.1
14,YSHGTFTSDYSKYLDK(Formula III)KYAQEFV[Aib]WLEDEPSSGAPPPS-OH (reading uncertain) [Compound B7],8.6
15,YSHGTFTSDYSKYLD[Aib]KYAQEFVK(Formula III)WLEDEPSSGAPPPS-OH (reading uncertain) [Compound B6],10.1
16,YSQGTFTSDK(Formula II)SKYLDAARAQEFVKWLEDEPKSKSPPPS-NH2 (reading uncertain) [Compound B36],11.5

# Molecular target: human GLP-1 receptor (GLP-1R) (human, UniProt P43220 24-463)
# Assay: cell-based or functional assay
# Remark: another data set of the same source
# Target sequence in this assay (P43220 24-463): as the sequence (P43220 24-463) above
row,Binder,GLP-1R pEC 50 [pEC50]
1,YSQGTFTSDYSKYLDK(Formula II)ARAQEFVKWLEDEPKSKSPPPS-NH2 (reading uncertain) [Compound B35],6.6
2,YSHGTFTSDYSKYLD[Aib]KRAQEFVIWLEDEPSSK(Formula III)APPPS-OH (reading uncertain) [Compound B29],7
3,WSQGTFTSDYSKYLD[Aib]KRAQEFVK(Formula II)WLEDEPSSGAPPPS-OH (reading uncertain) [Compound B18],< 6
4,YSHGTFTSDK(Formula III)SKYLD[Aib]KYAQEFV[Aib]WLEDEPSSGAPPPS-OH (reading uncertain) [Compound B8],< 6
5,YSHGTFTSDYSKYLD[Aib]KYAQEFV[Aib]WLEDEPSSK(Formula III)APPPS-OH (reading uncertain) [Compound B5],< 6
6,YSHGTFTSDK(Formula II)SKYLD[Aib]KRAQEFVIWLEDEPSSGAPPPS-OH (reading uncertain) [Compound B27],6.6
7,YSHGTFTSDYSKYLD[Aib]KRAQK(Formula III)FVIWLEDEPSSGAPPPS-OH (reading uncertain) [Compound B30],7
8,WSQGTFTSDYSKYLDK(Formula III)KRAQEFV[Aib]WLEDEPSSGAPPPS-OH (reading uncertain) [Compound B23],6.5
9,YSHGTFTSDK(Formula III)SKYLD[Aib]KRAQEFVIWLEDEPSSGAPPPS-OH (reading uncertain) [Compound B32],7.8
10,YSHGTFTSDYSKYLD[Aib]KSAQEFV[Aib]WLEDEPSSK(Formula III)APPPS-OH (reading uncertain) [Compound B13],< 6
11,YSHGTFTSDYSKYLD[Aib]KRAQEFVIWLEDEPSSK(Formula II)APPPS-OH (reading uncertain) [Compound B25],< 6
12,YSHGTFTSDYSKYLD[Aib]KSAQEFVK(Formula III)WLEDEPSSGAPPPS-OH (reading uncertain) [Compound B14],< 6
13,YSHGTFTSDYSKYLD[Aib]KSAQEFV[Aib]WLEDEPSSK(Formula II)APPPS-OH (reading uncertain) [Compound B9],< 6
14,WSQGTFTSDK(Formula II)SKYLD[Aib]KRAQEFV[Aib]WLEDEPSSGAPPPS-OH (reading uncertain) [Compound B20],6.5
15,YSHGTFTSDYSKYLDK(Formula II)KSAQEFV[Aib]WLEDEPSSGAPPPS-OH (reading uncertain) [Compound B11],6.3
16,YSHGTFTSDK(Formula III)SKYLD[Aib]KSAQEFV[Aib]WLEDEPSSGAPPPS-OH (reading uncertain) [Compound B16],8.3

row,Binder,GLP-1R pEC 50 [pEC50]
1,YSHGTFTSDYSKYLDK(Formula II)KYAQEFV[Aib]WLEDEPSSGAPPPS-OH (reading uncertain) [Compound B3],< 6
2,WSQGTFTSDK(Formula III)SKYLD[Aib]KRAQEFV[Aib]WLEDEPSSGAPPPS-OH (reading uncertain) [Compound B24],6.8
3,B2,< 6
4,YSHGTFTSDK(Formula II)SKYLD[Aib]KSAQEFV[Aib]WLEDEPSSGAPPPS-OH (reading uncertain) [Compound B12],7.2
5,YSHGTFTSDYSKYLDK(Formula III)KSAQEFV[Aib]WLEDEPSSGAPPPS-OH (reading uncertain) [Compound B15],< 6
6,YSHGTFTSDYSKYLDK(Formula III)KRAQEFVIWLEDEPSSGAPPPS (reading uncertain) [Compound B31],7.4
7,YSHGTFTSDYSKYLDK(Formula II)KRAQEFVIWLEDEPSSGAPPPS (reading uncertain) [Compound B26],< 6
8,YSQGTFTSDYSKYLDAARAQEFVKWLEDEPKSK(Formula II)SPPPS-NH2 (reading uncertain) [Compound B33],< 6
9,YSQGTFTSDYSKYLDAARAQEFVK(Formula II)WLEDEPKSKSPPPS-NH2 (reading uncertain) [Compound B34],< 6
10,YSHGTFTSDYSKYLD[Aib]KYAQEFVK(Formula II)WLEDEPSSGAPPPS-OH (reading uncertain) [Compound B2],< 6
11,WSQGTFTSDYSKYLD[Aib]KRAQEFV[Aib]WLEDEPSSK(Formula II)APPPS-OH (reading uncertain) [Compound B17],< 6
12,WSQGTFTSDYSKYLDK(Formula II)KRAQEFV[Aib]WLEDEPSSGAPPPS-OH (reading uncertain) [Compound B19],6.3
13,YSHGTFTSDK(Formula II)SKYLD[Aib]KYAQEFV[Aib]WLEDEPSSGAPPPS-OH (reading uncertain) [Compound B4],< 6
14,YSHGTFTSDYSKYLDK(Formula III)KYAQEFV[Aib]WLEDEPSSGAPPPS-OH (reading uncertain) [Compound B7],< 6
15,YSHGTFTSDYSKYLD[Aib]KYAQEFVK(Formula III)WLEDEPSSGAPPPS-OH (reading uncertain) [Compound B6],< 6
16,YSQGTFTSDK(Formula II)SKYLDAARAQEFVKWLEDEPKSKSPPPS-NH2 (reading uncertain) [Compound B36],8.1
